From publication PMC5925078

Assays:
[1] = molecular target: cytosolic deletion mutant of TNFR1 in which the death domain has been replaced by YFP, P19438; assay: cellular binding study with GpL (luciferase) fusion protein; competition; HEK293 cells transiently expressing TNFR1 or TNFR2 (YFP deletion mutants); preincubation with purified sTNF or PGRN at 37°C; 10-20 ng/ml GpL-TNF; EV-transfected cells as non-specific binding
[2] = molecular target: TNFR2 variant in which the intracellular binding site for TRAF2 has been substituted by YFP, P20333; assay: as above

specific binding of 20 ng/ml GpL-TNF, fold over the unspecific background (the pair that is blocked) [2]: > 2400 fold
B1: GpL-Flag-TNC-TNF (ligand)
chain: ACGCAAAPDIKDLLSRLEELEGLVSSLREQSDKPVAHVVANPQAEGQLQWLNRRANALLANGVELRDNQLVVPSEGLYLIYSQVLFKGQGCPSTHVLLTHTISRIAVSYQTKVNLLSAIKSPCQRETPEGAEAKPWYEPIYLGGVFQLEKGDRLSAEINRPDYLDFAESGQVYFGIIAL
specific binding of 20 ng/ml GpL-TNF, fold over the unspecific background (the pair that is blocked) [1]: > 800 fold
